T1: CD40L (UniProt P29965 113-261, limits assumed)
T1 construct: SPR analyte
T1 sequence (looked up): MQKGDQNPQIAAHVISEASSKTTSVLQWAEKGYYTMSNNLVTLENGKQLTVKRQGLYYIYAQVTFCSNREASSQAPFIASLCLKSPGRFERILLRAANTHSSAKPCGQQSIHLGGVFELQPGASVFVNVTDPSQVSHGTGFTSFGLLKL

T2: CD40L over-expressed on Expi293 cells (UniProt P29965 1-261, limits assumed)
T2 construct: whole, on cells; also called cytokine over-expressing Expi293 cells
T2 sequence (looked up): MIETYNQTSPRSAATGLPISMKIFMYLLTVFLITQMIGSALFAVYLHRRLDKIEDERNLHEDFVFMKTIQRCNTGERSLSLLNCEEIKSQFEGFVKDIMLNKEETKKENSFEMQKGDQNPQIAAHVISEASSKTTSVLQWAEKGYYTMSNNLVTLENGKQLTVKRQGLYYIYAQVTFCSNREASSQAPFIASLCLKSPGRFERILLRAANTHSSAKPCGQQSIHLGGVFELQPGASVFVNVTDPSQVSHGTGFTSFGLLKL


Columns and labels:
[1] = molecular target: T1, CD40L; experiment: SPR (Carterra LSA), antibody amine-coupled, 1:1 model
Procedure: SPR experiments were performed on a Carterra LSA SPR biosensor equipped with a HC30M chip at 25° C. in HBS-TE. Antibodies were diluted to 10 μg/mL and amine-coupled to the sensor chip by EDC/NHS activation, followed by ethanolamine HCl quenching. Increasing concentrations of analyte were flowed over the sensor chip in HBS-TE with 0.5 mg/mL BSA with 5-minute association and 15-minute dissociation. Following each injection cycle the surface was regenerated with 2× 30-second injections of IgG elution buffer (Thermo). Data were analyzed in Carterra's Kinetics Tool software with 1:1 binding model.

[2] = molecular target: T2, CD40L over-expressed on Expi293 cells; experiment: flow cytometry, 100 nM antibody, CD40L-Expi293 vs parent Expi293 cells;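 also: ratio is the mean fluorescence intensity on CD40L-overexpressing Expi293 cells divided by the mean fluorescence intensity on parental Expi293 cells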
Procedure: All incubations and washes were in buffer containing PBS+1% BSA. MFI Ratio is defined by the mean fluorescence intensity (MFI) of the cytokine over-expressing Expi293 cell over the Expi293 parent cell. […] EC50 was calculated in GraphPad Prism.

| Kd [1] | koff [1] | kon [1] | 100 nM FACS (MFI Ratio) [2] | Binder |
| --- | --- | --- | --- | --- |
| 3.18 nM | 0.000725 s⁻¹ | 228000 M⁻¹ s⁻¹ | 99.1 ratio | CD40L-2 (VHH) VHH: EVQLVESGGGLVQPGGSLRLSCAASGGRTFSRYDMGWFRQAPGKEREFVAAISMSGDDAAYADSVKGRFTISADNSKNTAYLQMNSLKPEDTAVYYCASDHYDTDTKSDVYNWGQGTLVTVSS |
| 0.0983 nM | 0.000167 s⁻¹ | 1.7e+06 M⁻¹ s⁻¹ | 104 ratio | CD40L-53 (VHH) VHH: EVQLVESGGGLVQPGGSLRLSCAASGGRTFSDYDMGWFRQAPGKEREFVAAIDASGGFTEYADSVKGRFTISADNSKNTAYLQMNSLKPEDTAVYYCASDHYDTDTKSDVYNWGQGTLVTVSS |
| ≤ 0.0113 nM | ≤ 1e-05 s⁻¹ | 888000 M⁻¹ s⁻¹ | 37.3 ratio | CD40L-13 (VHH) VHH: EVQLVESGGGLVQPGGSLRLSCAASGFTFGNYDMGWFRQAPGKEREFVAAIDASGGFTEYADSVKGRFTISADNSKNTAYLQMNSLKPEDTAVYYCASDHYDTDTKSDVYNWGQGTLVTVSS |
| 0.295 nM | 0.000196 s⁻¹ | 662000 M⁻¹ s⁻¹ | 72.9 ratio | CD40L-5 (VHH) VHH: EVQLVESGGGLVQPGGSLRLSCAASGLLFSSYDMGWFRQAPGKEREFVAAIDASGGFTEYADSVKGRFTISADNSKNTAYLQMNSLKPEDTAVYYCASDHYDTDTKSDVYNWGQGTLVTVSS |
| 1.37 nM | 0.0004 s⁻¹ | 291000 M⁻¹ s⁻¹ | 80.9 ratio | CD40L-8 (VHH) VHH: EVQLVESGGGLVQPGGSLRLSCAASGRTFSRSDMGWFRQAPGKEREFVAVISWSGAYTEYADSVKGRFTISADNSKNTAYLQMNSLKPEDTAVYYCASDHYDTDTKSDVYNWGQGTLVTVSS |
| ≤ 0.326 nM | ≤ 1e-05 s⁻¹ | 30700 M⁻¹ s⁻¹ | 93.6 ratio | CD40L-10 (VHH) VHH: EVQLVESGGGLVQPGGSLRLSCAASGRIFSTYFMGWFRQAPGKEREFVAAIYWSNGKTQYADSVKGRFTISADNSKNTAYLQMNSLKPEDTAVYYCAAWLNGGNRWGQGTLVTVSS |
| 47.9 nM | 0.00121 s⁻¹ | 25300 M⁻¹ s⁻¹ | 36.8 ratio | CD40L-49 (VHH) VHH: EVQLVESGGGLVQPGGSLRLSCAASGRTFSRYYMGWFRQAPGKEREFVAAIYWSNGKTQYADSVKGRFTISADNSKNTAYLQMNSLKPEDTAVYYCAAWLNGGNRWGQGTLVTVSS |
| 2.91 nM | 0.000159 s⁻¹ | 54700 M⁻¹ s⁻¹ | 87.9 ratio | CD40L-3 (VHH) VHH: EVQLVESGGGLVQPGGSLRLSCAASGRIFSTYFMGWFRQAPGKEREWVSSIYSDGSTTDYADSVKGRFTISADNSKNTAYLQMNSLKPEDTAVYYCAAWLNGGNRWGQGTLVTVSS |
| 6.93 nM | 0.000121 s⁻¹ | 17400 M⁻¹ s⁻¹ | 95.4 ratio | CD40L-7 (VHH) VHH: EVQLVESGGGLVQPGGSLRLSCAASGHTFSSYYMGWFRQAPGKEREFVAAIYSGGITTHYADSVKGRFTISADNSKNTAYLQMNSLKPEDTAVYYCAAWLNGGNRWGQGTLVTVSS |
| 2.39 nM | 0.000199 s⁻¹ | 83300 M⁻¹ s⁻¹ | 97.7 ratio | CD40L-37 (VHH) VHH: EVQLVESGGGLVQPGGSLRLSCAASGRTFSSYYMGWFRQAPGKEREEVATFYTGDGRTYYADSVKGRFTISADNSKNTAYLQMNSLKPEDTAVYYCAAWLNGGNRWGQGTLVTVSS |
| 5.82 nM | 0.00147 s⁻¹ | 252000 M⁻¹ s⁻¹ | 11.8 ratio | CD40L-4 (VHH) VHH: EVQLVESGGGLVQPGGSLRLSCAASGFTLDYYAMGWFRQAPGKEREFVAYVFGGGEITDYADSVKGRFTISADNSKNTAYLQMNSLKPEDTAVYYCANGNGVAETWGQGTLVTVSS |
